How the values were obtained:
[1] = biological target: unlabeled pan-acetylated peptide based on the H2B(9-23) sequence of L. donovani histone H2B (Leishmania donovani); experiment: thermal shift assay; 2.1 μM BD5T, 2x SYPRO orange, peptide at 400 μM, 20 mM HEPES, 500 mM NaCl, pH 7.5; 25 to 95 °C; n = 6
[2] = biological target: 5-FAM-labeled H2B(9-23)K9Ac K15Ac K19Ac K21Ac peptide of L. donovani histone H2B (Leishmania donovani); experiment: fluorescence polarisation; 800 nM 5-FAM peptide, protein 0-300 μM; 20 mM HEPES, 500 mM NaCl, 1 mg/mL BSA, pH 7.5; 30 min at room temperature; one-site-specific binding fit (two-site for BD5T); n = 3
[3] = biological target: 5-FAM-labeled H2B(17-23)K19Ac K21Ac peptide of L. donovani histone H2B (Leishmania donovani); experiment: as above
[4] = biological target: 5-FAM-labeled H2B(8-16)K9Ac K15Ac peptide of L. donovani histone H2B (Leishmania donovani); experiment: as above

A ΔTm at 400 μM peptide [1] of 0.6 °C was found for “Leishmania donovani bromodomain factor 5 (LdBDF5) tandem bromodomain pair, recombinant BD5T (domain or fragment)” in this work.

A Kd [2] of 117 µM, a Kd [3] of 77.5 µM and a Kd [4] of 170 µM were found for “Leishmania donovani bromodomain factor 5 (LdBDF5) first bromodomain, recombinant BD5.1 (domain or fragment)” in this work.

A Kd [2] of 463 µM, a Kd [3] of 160 µM and a Kd [4] of 366 µM were found for “Leishmania donovani bromodomain factor 5 (LdBDF5) second bromodomain, recombinant BD5.2 (domain or fragment)” in this work.
